Data from IntAct's records for PubMed 25416944.

Each substance was assayed against vhl_human VHL (UniProt P40337).
Chain of vhl_human VHL (P40337 whole entry, looked up): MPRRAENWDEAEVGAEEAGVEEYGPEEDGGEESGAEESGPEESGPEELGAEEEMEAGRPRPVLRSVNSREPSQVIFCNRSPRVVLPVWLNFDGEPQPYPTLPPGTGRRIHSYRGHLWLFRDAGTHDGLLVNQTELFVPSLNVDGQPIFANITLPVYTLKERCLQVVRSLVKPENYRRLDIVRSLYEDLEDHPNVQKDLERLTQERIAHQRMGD

Chain of T-complex protein 1 subunit alpha (Saccharomyces cerevisiae), P12612 L326A (P12612 whole entry L326A, one chain of several): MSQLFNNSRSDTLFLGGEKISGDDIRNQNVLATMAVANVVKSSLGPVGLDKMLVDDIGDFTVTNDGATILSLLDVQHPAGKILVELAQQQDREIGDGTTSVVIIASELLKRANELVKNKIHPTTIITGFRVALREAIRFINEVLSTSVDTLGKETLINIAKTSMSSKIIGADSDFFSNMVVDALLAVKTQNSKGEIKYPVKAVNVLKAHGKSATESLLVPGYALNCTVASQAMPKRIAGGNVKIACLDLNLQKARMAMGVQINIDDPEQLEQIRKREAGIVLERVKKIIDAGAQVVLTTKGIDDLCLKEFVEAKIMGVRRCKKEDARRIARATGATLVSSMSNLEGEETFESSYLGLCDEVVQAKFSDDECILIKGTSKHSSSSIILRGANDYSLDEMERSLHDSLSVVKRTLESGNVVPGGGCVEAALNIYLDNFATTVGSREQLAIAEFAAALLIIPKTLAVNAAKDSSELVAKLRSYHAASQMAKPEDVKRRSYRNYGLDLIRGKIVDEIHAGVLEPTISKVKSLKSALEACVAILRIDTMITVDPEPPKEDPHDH
Chain of T-complex protein 1 subunit alpha (Saccharomyces cerevisiae), P12612 L305A (P12612 whole entry L305A, one chain of several): as the sequence (P12612 whole entry L326A, one chain of several) above, with L305A, A326L counted along it
Chain of T-complex protein 1 subunit alpha (Saccharomyces cerevisiae), P12612 R319A (P12612 whole entry R319A, one chain of several): as the sequence (P12612 whole entry L326A, one chain of several) above, with R319A, A326L counted along it
Chain of T-complex protein 1 subunit alpha (Saccharomyces cerevisiae), P12612 V311A (P12612 whole entry V311A, one chain of several): as the sequence (P12612 whole entry L326A, one chain of several) above, with V311A, A326L counted along it

| effect of a mutation on the interaction | Substance |
| --- | --- |
| decreasing interaction strength | T-complex protein 1 subunit alpha (Saccharomyces cerevisiae), P12612 V311A |
| decreasing interaction strength | T-complex protein 1 subunit alpha (Saccharomyces cerevisiae), P12612 L305A |
| decreasing interaction strength | T-complex protein 1 subunit alpha (Saccharomyces cerevisiae), P12612 L326A |
| decreasing interaction strength | T-complex protein 1 subunit alpha (Saccharomyces cerevisiae), P12612 R319A |
